Measured values taken from paper PMC5699081 (Proceedings of the National Academy of Sciences of the …, 2017).

Target: T1, GST-MPSR1 (Misfolded Protein Sensing RING E3 ligase 1) (Arabidopsis thaliana, UniProt Q9LQX2 1-204)
T1 sequence (looked up): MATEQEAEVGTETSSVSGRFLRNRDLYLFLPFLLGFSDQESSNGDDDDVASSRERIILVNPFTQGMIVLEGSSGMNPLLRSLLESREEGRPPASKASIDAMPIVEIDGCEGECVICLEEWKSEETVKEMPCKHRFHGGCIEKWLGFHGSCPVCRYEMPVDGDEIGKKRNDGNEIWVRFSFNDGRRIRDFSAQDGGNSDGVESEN
Test: pull-down

binding result: binds
B1: His-MPSR1-DN (enzyme, Arabidopsis thaliana, UniProt Q9LQX2 1-204, looked up)
chain: MATEQEAEVGTETSSVSGRFLRNRDLYLFLPFLLGFSDQESSNGDDDDVASSRERIILVNPFTQGMIVLEGSSGMNPLLRSLLESREEGRPPASKASIDAMPIVEIDGCEGECVICLEEWKSEETVKEMPCKHRFHGGCIEKWLGFHGSCPVSRYEMPVDGDEIGKKRNDGNEIWVRFSFNDGRRIRDFSAQDGGNSDGVESEN
